{
  "source": "the DeepSol protein solubility set",
  "data": [
    {"assay": "soluble on expression in E. coli; label from the status in PepcDB or PDB records", "values": [
      {"sequence": "MSLITVNTLQKMKAAGEKIAMLTAYESSFAALMDDAGVEMLLVGDSLGMAVQGRKSTLPVSLRDMCYHTECVARGAKNAMIVSDLPFGAYQQSKEQAFAAAAELMAAGAHMVKLEGGVWMAETTEFLQMRGIPVCAHIGLTPQSVFAFGGYKVQGRGGKAQALLNDAKAHDDAGAAVVLMECVLAELAKKVTETVSCPTIGIGAGADCDGQVLVMHDMLGIFPGKTAKFVKNFMQGHDSVQAAVRAYVAEVKAKTFPAAEHIFADEGGSHHHHHH", "soluble on expression in E. coli": "soluble"},
      {"sequence": "MSLIVDREELEYDGSQLRRAFAHERYGIKGRAVVVFRGPMDVRTEYTADAEDVGSPIRGNDVLHLLVDDPTRADPLVAGLLQRLLVVVTKEVIEKELSTDLDRDGDDLLHDGRKLTVSVFKPAGPGSLAHLGINVTTEGVPVPASSLRDLGYRGDPLDLGRRVAVEFVREITDVELDLTKIRWEGHHHHHH", "soluble on expression in E. coli": "soluble"},
      {"sequence": "MSLKADPRGTGSRTPGTATGGKTVPTVPPAPTADRRTTVDVTALLERGRTLATPVLRAAVDRLAPPMDTVAAYHFGWIDAQGNPADGDGGKAVRPALAVLSAEVTGAAPEVGVPGAVAVELVHNFSLLHDDLMDGDEQRRHRDTVWKVHGPAQAILVGDALFALANEVLLELGTVEAGRATRRLTKASRSLIDGQAQDISYEHRDRVSVEECLEMEGNKTGALLACASSIGAVLGGADERTADTLEKYGYHLGLAFQAVDDLLGIWGDPDATGKQTWSDLRQRKKSLPVVAALAAGGAASERLGEILTADAKASDFANFSEEEFAARAALIEEAGGREWTADEARRQHTIAIEALDAVDMPDRVRDRFTALADFVVVRKREGHHHHHH", "soluble on expression in E. coli": "soluble"},
      {"sequence": "MSLKAFLHHLQNEAKLIISLTYCVDGEFALNEIARATLQQYGIVQLSSATNSDSETEAATSKAVKTAYDKAVEAKTTADGKVGLNGNESINGEKTFENRIVAKRNIRISDSPHYASRGDYLNIGANNGDCWFEYKLSNQEIGTLRMHANGDLTYKRQKIYLKMDCWQAIHKRKLKVFTAKRKKREGHHHHHH", "soluble on expression in E. coli": "not soluble"},
      {"sequence": "MSLKANNLLSQFGDHRQRVQSAITAVCEGRGILLVDDENRENEGDLIFSAQSMTEADMAIMIRHCSGIVCLCITEEKARQLNLPLMVEQNTSKYGTAFTISIEAAEGVTTGVSAADRIQTIRTAIAPNATPESLHHPGHIFPLIARSGGIKERSGHTEGSIDLMKLAGLAPCAVLCELTNDDGTMARLPEIIKFGLEHKYPVVTINDLKEYQTAPDFLPKLVGSFSCPAAENPTTAIMEAAFRHHYMHYRYINCEVGPENLAAAIQGAKAMGWRGFNCSLPNKVEIIRYLDELGESAKIIGAVNTVVIGDDQRATGENTDGKGFVKAISEIITIQDKKIALLGAGGAARAIAVEMALAGVKEITILNRNRDKGQALADLLNSQTVATARFVLWDHPYRFSTDIDIVINATSVGLYSNVDQRLNIDTDTLLPHMVVADCIPNPVYTQLLRDAVRRGCCHVLPGMKMLVYQAVIAIKYWSGVDVDPDIMLEKLKEVVKEGHHHHHH", "soluble on expression in E. coli": "soluble"},
      {"sequence": "MSLKIAILCASGKVGKEISKEALKRNLEPVCFVRNSSKMNEFLPQAKIVQRDLFELDSKDLIDFDIIIDAFGEWENLSLHKKHIECLSVILQGSKAKLFVVGGAGSLYMDENHTTRLMDMPDFPKEYLDIAKASAEVLEFLRNEKGFKWVYVSPSAIFSPDLPKSNHYKIIGEKFEVNANNESKISYSDYASAMIDIVLNSCYENTRIGVISLEGHHHHHH", "soluble on expression in E. coli": "soluble"},
      {"sequence": "MSLKIDFLTLFPEMFEGVLGSSILQKAQEKDAVQFQVVNFREYSDNKHNTVDDYPYGGGAGMVLKPQPVFDAVEDLTSKAAAAPRIILVCPQGERFTQKKAEQLAKEEHLLFICGHYEGYDERIREHLVTDEISIGDFVLTGGELPAMMIADSVVRLLPGVLGKEASHIEDSFSTGLLEHPHYTRPADYKGLKVPETLLSGNHAKIEEWRNKESIRRTYLRRPDLLKDYPLTEQQRKWISEWEKEEGGSHHHHHH", "soluble on expression in E. coli": "soluble"},
      {"sequence": "MSLKIGPILRSNVNRSITGDFDFREADLSLIRNFPNARVSLRDITLTTAAPFEGDTLFKAREAYLVMGIGELFKGAGEPIGIRELFVSGADLRLRLDAEERPNYLVAAEDPAATGATAASDGFTFDLQGYQIADSKISYMDQSSGISFLLEDIQHTGSGDLSLAESRLETRTDARISLGMDSVQYLDRNSLQLDARIGIDLETDTYTFLENEGLINQMPLVFEGSVQLVEEGQEIDLDFRTPSSDFKNFLALIPEAYSKSLEEVRTSGQFTLEGSITGRSDDTRIPNLDIRMEAVDAAFRYPDLPKGIDDINFSARLLNTTGIAGDTYLEIPAAGFRIDQDVFNMSGNIRSLTGNPEVDAALKGTINLASLDQAYPVELAPGLSGVLRADVQTAFDMASVENKQYGNTRTSGSLQLSNLNFRADNFAEPVKIREARLRFDPVEARLESLSGSLGQSDFTLSGTVRDYLGYLLADGILKGQFSLTSNQLLVSDFMSPEDPGQAEKETGADARASGQAPDGGPAFQIPAAIDVSIRGQAASVVYDGLPLRNVSGNLQIRDQELQLRDVRSDALDGKLALNGTVATGEGLPRFNMDLGIDGFRIRETLESIELFETLAPIASIVEGKLNSRVQLSGLLNSDFSPDLMSLAGNVVAEVLASDITGTRAKVLEALDARMDFFNMEDLDLKGLKTALNFENGLVTVKPFSFTYRDMEVSVAGSHSFDQQLNYTATLQVPAKYLGSDVNRLVTELQEPGLKEGHHHHHH", "soluble on expression in E. coli": "not soluble"},
      {"sequence": "MSLKIKEITIWKEDLALTRPYTIAYETISAVENVFVLLETDNGITGIGAGSPAEDVTGETITATETALSLKLAPILQGKDIRSCFSLLKELNTALADTPAALAAADIALHDLAAKTMGLPLVDLLGRVHDRLPTSITIGIMPVKETLAEAEEYLGRGFSILKIKTGLNVEEDIERIIRLNETFKSKICMRVDANQGYEVEELHHFFKKTVGLVEFIEQPLKAEHLEKMGQLPQAIRRVSAADETLLGPRDAAQMLHAPRPFGIFNIKLMKCGGIAPGLEIANMAGHADIDLMWGCMDESIVSIAGALHAAFSSRATRYLDLDGSLDLARDIVNGGFILENGWMRTTDQPGLGVKRIEGHHHHHH", "soluble on expression in E. coli": "soluble"},
      {"sequence": "MSLKIKKSKLIGFVVADITNPFSVAAFRGVEEVCDQYGYSIMVCNTDNSPEKEREMLLKLEAHSVEGLILNATGENKDVLRAFAEQQIPTILIDRKLPDLKLDTVTTDNRWITKEILQKVYSKGYTDVALFTEPISSISPRAERAAVYQEMASVQNVNGLVRLHEIDVKDKEQLKAELRSFHKEMPEQKKAILALNGLIMLKIISCMEELGLRIPQDIGIAGFDDTEWYKLIGPGITTIAQPSHDMGRTAMERVLKRIEGDKGAPQTIELEAKVIMRKSLEGHHHHHH", "soluble on expression in E. coli": "soluble"},
      {"sequence": "MSLKIKLIAVDLDGTLLTSRKKVSPKTLATLKKAREKGILVVPLSGRPLPGVLKVFEPFKLDPADNFAICYNGGLVQRMDGEVLSVSPLTDENVEHMLALKQTGIFGPYFMDTKDFYVAPKGSSFGVGFLAKARNMGVKRMVPGQHYEFIKGEFVSLPSKIKKFRAGFSPATEQEFEISASGGQCLEFNTPGTSKGQALTTLLDLLNIQPEEAMVFGDNNNDLSDFQLPGVFKVAMGNAIDEIKAAADYVTASNNQDGIALAVEKFVDMEGHHHHHH", "soluble on expression in E. coli": "soluble"},
      {"sequence": "MSLKILLKQAMVYPITSQKFQGDVLVIGEKIAEVKPFIQPTQDMTVIDARALHLLPGFIDVHTHLGLYDEGTGWAGNDANETSEVSTPHIRSLDGIHPLDIAFQDAVQNGITTVHVMPGSQNIIGGTTCVIKTAGTCIDHMIIQEPAGLKIAFGENPKKVHSNGTKESITRMGIMGLLRESFYEAQHYGHEADFRMLPILKALRREIPVRIHAHRADDISSALRFATEFNLDLRIEHCTEGHFIVEELSKHNLKVSVGPTLTRRSKIELKNKTWDTYHILSKSGVEVSITTDHPYTPIQYLNLCAAVAVREGLDEKTALEGITIFPARNLRLEDRIGSIEVGKDADLVLWTHHPFHYLAKPVLTMIDGKIIYKKNKKNEGHHHHHH", "soluble on expression in E. coli": "not soluble"},
      {"sequence": "MSLKILVYGINYSPELTGIGKYTGEMVAWMAQEGHEVRVITAPPYYPQWKVGERYSAWRYRWEEGEATVWRCPLYVPKQPSTLKRLLHLGSFALSSFFPLMAQRRWKPDRIIGVVPTLFCTPGMRLLATLSGARTVLHIQDYEVDAMLGLGMAGKGKRGSVARLATAFERSALRNVDNVSTISRSMMNKAREKGVAAEKILFFPNWSEVARFQDVNDADVTALRQQLGLPEGKKIVLYSGNIGEKQGLEKVIDAAERLRDRPLIFAIVGQGGGKARMENMARERGLANIKFLPLQPYDALPALLKMGDCHLVVQKRGAADAVLPSKLTNILAVGGNAVITAEPHTELGQLCARYPGIAVCVEPESTDALVDGISQALAMPKNNMTAREYAERTLNKENVLRQFIADIRGEGHHHHHH", "soluble on expression in E. coli": "soluble"}
    ]}
  ]
}
